8 molecules from US20140011738A1 (INDIANA UNIVERSITY RESEARCH AND TECHNOLOGY, published 2014) can be followed below.

*1 amine or outer side, *2 acyl side, *3 side chain or, on linkers, in order; H or OH if unused. Where no end group is shown, it is not given here. Side-chain parts run from the residue outwards. [ ]: non-standard residue; d: D form. The star is where a group is joined. γGlu = O=C(O)[C@H](CCC(=O)[*:2])N[*:1]; Palmitoyl = CCCCCCCCCCCCCCCC(=O)*; Aib = CC(C)(N)C(=O)O

Holding throughout (assay): cell-based or functional assay
For one assay, the target named is T1, GIP receptor (UniProt P48546 22-466, limits assumed).
T1 sequence (looked up): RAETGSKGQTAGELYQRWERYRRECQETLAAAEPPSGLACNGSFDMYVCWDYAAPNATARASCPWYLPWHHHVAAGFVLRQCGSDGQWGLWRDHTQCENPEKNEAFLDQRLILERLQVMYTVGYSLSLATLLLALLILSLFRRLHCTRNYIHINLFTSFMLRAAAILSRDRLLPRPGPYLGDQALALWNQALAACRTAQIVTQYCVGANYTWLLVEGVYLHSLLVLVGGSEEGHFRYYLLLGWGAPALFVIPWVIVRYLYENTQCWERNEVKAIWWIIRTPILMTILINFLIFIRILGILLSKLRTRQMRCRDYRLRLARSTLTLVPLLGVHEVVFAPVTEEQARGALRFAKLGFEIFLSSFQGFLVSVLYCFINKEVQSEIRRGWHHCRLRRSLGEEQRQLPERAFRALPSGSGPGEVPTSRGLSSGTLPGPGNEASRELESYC

The next assay has as its target glucagon receptor (UniProt P47871 26-477, limits assumed).
A further assay deals with GLP-1 receptor (UniProt P43220 24-463, limits assumed).
Chain of GLP-1 receptor (P43220 24-463 limits assumed): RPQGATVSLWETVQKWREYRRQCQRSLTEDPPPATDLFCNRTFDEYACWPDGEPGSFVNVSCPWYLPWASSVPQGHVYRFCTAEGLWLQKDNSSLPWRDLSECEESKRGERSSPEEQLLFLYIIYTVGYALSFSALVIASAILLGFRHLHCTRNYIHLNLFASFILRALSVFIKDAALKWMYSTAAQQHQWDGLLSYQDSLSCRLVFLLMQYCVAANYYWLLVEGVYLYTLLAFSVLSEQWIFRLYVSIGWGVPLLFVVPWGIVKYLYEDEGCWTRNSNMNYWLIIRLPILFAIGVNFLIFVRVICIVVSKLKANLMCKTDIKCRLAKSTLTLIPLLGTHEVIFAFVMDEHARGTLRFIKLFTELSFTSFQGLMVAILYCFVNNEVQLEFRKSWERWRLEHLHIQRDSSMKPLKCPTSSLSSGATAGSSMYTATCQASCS

Chain of glucagon receptor (P47871 26-477 limits assumed): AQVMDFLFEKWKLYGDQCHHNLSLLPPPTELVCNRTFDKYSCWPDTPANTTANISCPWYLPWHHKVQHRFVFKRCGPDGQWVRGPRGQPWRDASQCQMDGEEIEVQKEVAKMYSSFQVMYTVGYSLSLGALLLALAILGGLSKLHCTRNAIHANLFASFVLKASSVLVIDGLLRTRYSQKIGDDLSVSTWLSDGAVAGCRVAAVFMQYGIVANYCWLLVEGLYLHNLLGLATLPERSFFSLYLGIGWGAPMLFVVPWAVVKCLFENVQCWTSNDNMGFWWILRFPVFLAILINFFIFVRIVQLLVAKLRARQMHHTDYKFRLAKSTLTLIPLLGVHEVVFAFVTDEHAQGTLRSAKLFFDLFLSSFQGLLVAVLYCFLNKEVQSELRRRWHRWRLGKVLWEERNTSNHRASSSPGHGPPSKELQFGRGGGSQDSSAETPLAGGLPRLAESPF

B1: peptide of SEQ ID NO: 43 (peptide)
peptide: H[Aib]QGTFTSDK([γGlu-Palmitoyl])SKYLDERAAQDFVQWLLEGGPSSGAPPPS-NH2
modifications: N-terminus assumed
SMILES: CCCCCCCCCCCCCCCC(=O)N[C@@H](CCC(=O)NCCCC[C@H](NC(=O)[C@H](CC(=O)O)NC(=O)[C@H](CO)NC(=O)[C@@H](NC(=O)[C@H](Cc1ccccc1)NC(=O)[C@@H](NC(=O)CNC(=O)[C@H](CCC(N)=O)NC(=O)C(C)(C)NC(=O)[C@@H](N)Cc1c[nH]cn1)[C@@H](C)O)[C@@H](C)O)C(=O)N[C@@H](CO)C(=O)N[C@@H](CCCCN)C(=O)N[C@@H](Cc1ccc(O)cc1)C(=O)N[C@@H](CC(C)C)C(=O)N[C@@H](CC(=O)O)C(=O)N[C@@H](CCC(=O)O)C(=O)N[C@@H](CCCNC(=N)N)C(=O)N[C@@H](C)C(=O)N[C@@H](C)C(=O)N[C@@H](CCC(N)=O)C(=O)N[C@@H](CC(=O)O)C(=O)N[C@@H](Cc1ccccc1)C(=O)N[C@H](C(=O)N[C@@H](CCC(N)=O)C(=O)N[C@@H](Cc1c[nH]c2ccccc12)C(=O)N[C@@H](CC(C)C)C(=O)N[C@@H](CC(C)C)C(=O)N[C@@H](CCC(=O)O)C(=O)NCC(=O)NCC(=O)N1CCC[C@H]1C(=O)N[C@@H](CO)C(=O)N[C@@H](CO)C(=O)NCC(=O)N[C@@H](C)C(=O)N1CCC[C@H]1C(=O)N1CCC[C@H]1C(=O)N1CCC[C@H]1C(=O)N[C@@H](CO)C(N)=O)C(C)C)C(=O)O
Consider B1, for which the concentration giving a half-maximal response (EC50) at GIP Receptor with GIP receptor was 5 pM. In addition, in the assay with glucagon receptor, a half-maximal response (EC50 at Glucagon Receptor) required 6 pM. Further, the “EC50 at GLP-1 Receptor” value with GLP-1 receptor amounted to 4 pM.

For the molecule H[Aib]QGTFTSDYSKYLDERAAQDFVQWLLDGGPSSGAPPPSK([γGlu-γGlu-Palmitoyl])G-NH2 [peptide of SEQ ID NO: 11], the “EC50 at GIP Receptor” value with GIP receptor amounted to 24 pM. In the assay with glucagon receptor, a half-maximal response (EC50 at Glucagon Receptor) required 4 pM. Moreover, in the assay with GLP-1 receptor, the “EC50 at GLP-1 Receptor” value was 1 pM.

For the molecule H[Aib]QGTFTSDK([γGlu-Palmitoyl])SKYLDERAAQDFVQWLLDGGPSSGAPPPS-NH2 [peptide of SEQ ID NO: 10], in the assay with GIP receptor, the midpoint of the response, the EC50 at GIP Receptor, lay at 4 pM. In the assay with glucagon receptor, the “EC50 at Glucagon Receptor” value was found to be 4 pM. The half-maximal effective concentration (EC50) at GLP-1 Receptor with GLP-1 receptor is 4 pM.

On to H[Aib]QGTFTSDYAKYLDERAAQDFVQWLLDGGPSSGAPPPSK([γGlu-γGlu-Palmitoyl])G-NH2 [peptide of SEQ ID NO: 17], for which the “EC50 at GIP Receptor” value with GIP receptor was 20 pM. Moreover, the “EC50 at Glucagon Receptor” value in the assay with glucagon receptor worked out at 19 pM. In the assay with GLP-1 receptor, the 50% effective concentration (EC50) at GLP-1 Receptor is 8 pM.

Regarding H[Aib]QGTFTSDYSKYLEERAAQDFVQWLLDGGPSSGAPPPSK([γGlu-γGlu-Palmitoyl])G-NH2 [peptide of SEQ ID NO: 15], a half-maximal response with GIP receptor (EC50 at GIP Receptor) required 8 pM. For the same molecule, the “EC50 at Glucagon Receptor” value with glucagon receptor was determined as 5 pM. Further, the “EC50 at GLP-1 Receptor” value with GLP-1 receptor is 3 pM.

For H[Aib]QGTFTSEYSKYLDERAAQDFVQWLLDGGPSSGAPPPSK([γGlu-γGlu-Palmitoyl])G-NH2 [peptide of SEQ ID NO: 16], the “EC50 at GIP Receptor” value in the assay with GIP receptor was determined as 54 pM. In addition, the concentration giving a half-maximal response (EC50) at Glucagon Receptor in the assay with glucagon receptor was determined as 28 pM. Besides, in the assay with GLP-1 receptor, the “EC50 at GLP-1 Receptor” value was determined as 2 pM.

B2: peptide of SEQ ID NO: 44 (peptide)
peptide: H[Aib]EGTFTSDK([γGlu-Palmitoyl])SKYLDERAAQDFVQWLLEGGPSSGAPPPS-NH2
modifications: N-terminus assumed
SMILES: CCCCCCCCCCCCCCCC(=O)N[C@@H](CCC(=O)NCCCC[C@H](NC(=O)[C@H](CC(=O)O)NC(=O)[C@H](CO)NC(=O)[C@@H](NC(=O)[C@H](Cc1ccccc1)NC(=O)[C@@H](NC(=O)CNC(=O)[C@H](CCC(=O)O)NC(=O)C(C)(C)NC(=O)[C@@H](N)Cc1c[nH]cn1)[C@@H](C)O)[C@@H](C)O)C(=O)N[C@@H](CO)C(=O)N[C@@H](CCCCN)C(=O)N[C@@H](Cc1ccc(O)cc1)C(=O)N[C@@H](CC(C)C)C(=O)N[C@@H](CC(=O)O)C(=O)N[C@@H](CCC(=O)O)C(=O)N[C@@H](CCCNC(=N)N)C(=O)N[C@@H](C)C(=O)N[C@@H](C)C(=O)N[C@@H](CCC(N)=O)C(=O)N[C@@H](CC(=O)O)C(=O)N[C@@H](Cc1ccccc1)C(=O)N[C@H](C(=O)N[C@@H](CCC(N)=O)C(=O)N[C@@H](Cc1c[nH]c2ccccc12)C(=O)N[C@@H](CC(C)C)C(=O)N[C@@H](CC(C)C)C(=O)N[C@@H](CCC(=O)O)C(=O)NCC(=O)NCC(=O)N1CCC[C@H]1C(=O)N[C@@H](CO)C(=O)N[C@@H](CO)C(=O)NCC(=O)N[C@@H](C)C(=O)N1CCC[C@H]1C(=O)N1CCC[C@H]1C(=O)N1CCC[C@H]1C(=O)N[C@@H](CO)C(N)=O)C(C)C)C(=O)O
Take B2: in the assay with GIP receptor, the response was half-maximal at 27 pM (EC50 at GIP Receptor). In addition, the “EC50 at Glucagon Receptor” value with glucagon receptor came to 1470 pM. Moreover, the “EC50 at GLP-1 Receptor” value with GLP-1 receptor is 7 pM.

B3: peptide of SEQ ID NO: 18 (peptide)
peptide: H[Aib]QGTFTSDK([γGlu-Palmitoyl])SKYLEERAAQEFVQWLLEGGPSSGAPPPS-NH2
modifications: N-terminus assumed
SMILES: CCCCCCCCCCCCCCCC(=O)N[C@@H](CCC(=O)NCCCC[C@H](NC(=O)[C@H](CC(=O)O)NC(=O)[C@H](CO)NC(=O)[C@@H](NC(=O)[C@H](Cc1ccccc1)NC(=O)[C@@H](NC(=O)CNC(=O)[C@H](CCC(N)=O)NC(=O)C(C)(C)NC(=O)[C@@H](N)Cc1c[nH]cn1)[C@@H](C)O)[C@@H](C)O)C(=O)N[C@@H](CO)C(=O)N[C@@H](CCCCN)C(=O)N[C@@H](Cc1ccc(O)cc1)C(=O)N[C@@H](CC(C)C)C(=O)N[C@@H](CCC(=O)O)C(=O)N[C@@H](CCC(=O)O)C(=O)N[C@@H](CCCNC(=N)N)C(=O)N[C@@H](C)C(=O)N[C@@H](C)C(=O)N[C@@H](CCC(N)=O)C(=O)N[C@@H](CCC(=O)O)C(=O)N[C@@H](Cc1ccccc1)C(=O)N[C@H](C(=O)N[C@@H](CCC(N)=O)C(=O)N[C@@H](Cc1c[nH]c2ccccc12)C(=O)N[C@@H](CC(C)C)C(=O)N[C@@H](CC(C)C)C(=O)N[C@@H](CCC(=O)O)C(=O)NCC(=O)NCC(=O)N1CCC[C@H]1C(=O)N[C@@H](CO)C(=O)N[C@@H](CO)C(=O)NCC(=O)N[C@@H](C)C(=O)N1CCC[C@H]1C(=O)N1CCC[C@H]1C(=O)N1CCC[C@H]1C(=O)N[C@@H](CO)C(N)=O)C(C)C)C(=O)O
On to B3, for which the midpoint of the response in the assay with GIP receptor, the EC50 at GIP Receptor, lay at 7 pM. Further, the midpoint of the response in the assay with glucagon receptor, the EC50 at Glucagon Receptor, lay at 7 pM. Further, the “EC50 at GLP-1 Receptor” value with GLP-1 receptor stood at 8 pM.

Broadly, the EC50 is the concentration needed to bring the measured effect to its halfway point. A low value points to greater potency.
